This assay deals with WT myostimulin (human C1orf54, residues 17-131) (human) (UniProt Q8WWF1). Kind of assay: RP-HPLC-MS.

As a reminder, the stoichiometry N is a count of units in the complex or per binding partner.

As for “WT myostimulin (human C1orf54, residues 17-131) (from UniProt Q8WWF1 17-131) (natural protein)”, the stoichiometry N turned out to be 2.

These data come from doi:10.1101/2025.04.09.647960.
